The series can be described thus: collision cross section of unmodified peptide (TIMS, N2, iRT-aligned); higher = larger / more extended gas-phase ion. The procedure, abridged:
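Collision cross section was derived from the Mason-Schamp equation. Each value averages 1–3 technical replicates of the most abundant feature per charge state, measured on a timsTOF Pro/HT in dda-PASEF mode (nitrogen, ~2.4 mbar) after a 120-min nanoflow C18 gradient at 60 °C. Synthetic peptide pools (~100 fmol/µL in 2% acetonitrile/0.1% formic acid, iRT standard spiked 1:40) were identified with MaxQuant, and 1/K0 was calibrated with three reference ions and aligned run-wise to the median iRT peptide deviation.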

± gives the standard deviation.

Regarding LLALSGPGGGRGR, the collision cross section runs as follows: (charge state: 2) 381.45 ± 1.3 Å²; (charge state: 3) 451.48 ± 1.9 Å².

Regarding GLPGLAGDHGEFGEK, the collision cross section is, setting by setting: (charge state: 2) 432.07 ± 1 Å²; (charge state: 3) 504.1 ± 0.34 Å².

In the case of GNDISSGTVLSDYVGSGPPK, the collision cross section (charge state: 2) is on record as 464.77 ± 1 Å².

VELCSFSGYK gave a collision cross section (charge state: 2) of 358.19 ± 0.59 Å².

On to TQSFSLQER, for which, under “charge state: 2”, the collision cross section amounted to 347.63 ± 0.14 Å².

Sequence GEGGFGGRGGGR came in with a collision cross section (charge state: 2) of 340.19 ± 0.38 Å² and a collision cross section (charge state: 3) of 426.14 ± 4 Å².

With AYPLADAHLTK, the collision cross section is on record as 383.63 ± 0.16 Å² (charge state: 2) and 452.45 ± 1.1 Å² (charge state: 3).

With GQDSTIAASEQQVAAR, the collision cross section is, setting by setting: (charge state: 2) 416.79 ± 0.66 Å²; (charge state: 3) 495.1 ± 0.23 Å².

Consider GFLQPPPLRQPR, for which the collision cross section is, setting by setting: (charge state: 2) 397.31 ± 0.59 Å²; (charge state: 3) 451.27 ± 5.3 Å².

Consider SYISSQTNDTHK, for which the collision cross section (charge state: 2) was found to be 399.56 ± 0.14 Å² and the collision cross section (charge state: 3) is on record as 459.19 ± 1.2 Å².

With VILENIASHEPR, the collision cross section is reported as 417.03 ± 1.4 Å² (charge state: 2) and 473.55 ± 0.22 Å² (charge state: 3).

Consider IPPTYQIR, for which the collision cross section (charge state: 2) worked out at 332.62 ± 0.59 Å².

Regarding GTGRGGGGGGGGGAPR, the collision cross section reads like this: (charge state: 2) 356.62 Å²; (charge state: 3) 435.15 ± 5.4 Å².

As to GRGVGSPEPGPTAPYLGRR, the collision cross section (charge state: 3) is reported as 516.55 Å².

On to YHEDIFGLTLR, for which the collision cross section is, setting by setting: (charge state: 2) 388.91 ± 0.75 Å²; (charge state: 3) 462.33 ± 2 Å².

In the case of SGGYGGSRDYYSSR, the collision cross section reads like this: (charge state: 2) 399.15 ± 1.2 Å²; (charge state: 3) 474.66 ± 1.4 Å².

The sequence FIHQQPQSSSPVYGSSAK returned a collision cross section (charge state: 3) of 514.9 ± 0.21 Å².

For VYPSSLSK, the collision cross section (charge state: 2) was determined as 317.31 ± 0.73 Å².

SPPLPEHQKIPCNSAEPK: for the setting “charge state: 3”, the collision cross section is 527.39 ± 1.3 Å².

YVGESEANIR gave a collision cross section (charge state: 2) of 358.37 ± 0.55 Å².

Regarding VYIASSSGSTAIKK, the collision cross section reads like this: (charge state: 2) 426.35 ± 1.9 Å²; (charge state: 3) 494.89 ± 3.4 Å².

Regarding SPDEAYAIAKK, the collision cross section by setting is: (charge state: 2) 371.22 ± 1.1 Å²; (charge state: 3) 435.25 ± 4.4 Å².

Under “charge state: 2”, EGFSIPVSADGFK returned a collision cross section of 384.97 ± 0.14 Å².

For the sequence VEPGSLESSPGLGRGR, the collision cross section reads like this: (charge state: 2) 425.39 ± 1.8 Å²; (charge state: 3) 497.45 ± 0.11 Å².

FGSRGGPGGGFR: the collision cross section runs as follows: (charge state: 2) 358.01 ± 0.11 Å²; (charge state: 3) 437.12 ± 3.8 Å².

With VFSIISSEKELK, the collision cross section runs as follows: (charge state: 2) 413.02 ± 1.5 Å²; (charge state: 3) 485.92 ± 5.3 Å².

VGYPGPSGPLGAR: the collision cross section reads like this: (charge state: 2) 357.93 ± 0.58 Å²; (charge state: 3) 439.38 ± 0.85 Å².

As for DLTTAGAVTQCYR, the collision cross section was 396.98 ± 0.16 Å² (charge state: 2) and 489.14 Å² (charge state: 3).

GDQGEPGPSGNPGK had a collision cross section (charge state: 2) of 342.01 ± 0.23 Å².

For SYSVGASGSSSR, the collision cross section (charge state: 2) is 351.41 ± 0.48 Å².

As to DDSNLYINVK, the collision cross section (charge state: 2) is listed as 367.7 ± 0.74 Å².

As for APPIDRSILPTAPR, the collision cross section turned out to be 416.59 ± 1.1 Å² (charge state: 2) and 492.42 ± 3.4 Å² (charge state: 3).

With ISSNFSSIIAEKLR, the collision cross section (charge state: 2) is recorded as 430.92 ± 3.1 Å² and the collision cross section (charge state: 3) was 511.25 ± 4.9 Å².

Consider LDINTNTYTSQDLK, for which the collision cross section (charge state: 2) worked out at 418.99 ± 0.69 Å².

Turning to APVGSVVSVPSQSSASSDK, where the note is “charge state: 2”, the collision cross section is on record as 452.28 ± 0.77 Å².

For VGIDTPDIDIHGPEGKLK, the collision cross section runs as follows: (charge state: 2) 461.05 ± 2.5 Å²; (charge state: 3) 538.36 ± 1.9 Å².

SQLANTEPTK had a collision cross section (charge state: 2) of 350.96 ± 0.68 Å².
